Source: US20240368285A1 (HEFEI TG IMMUNOPHARMA, published 2024)

T1: MICA on human tumor cells (A-375, A549, HCT-15, MDA-MB-231) (human, UniProt Q29983 24-383)
T1 construct: whole, on cells
T1 sequence (looked up): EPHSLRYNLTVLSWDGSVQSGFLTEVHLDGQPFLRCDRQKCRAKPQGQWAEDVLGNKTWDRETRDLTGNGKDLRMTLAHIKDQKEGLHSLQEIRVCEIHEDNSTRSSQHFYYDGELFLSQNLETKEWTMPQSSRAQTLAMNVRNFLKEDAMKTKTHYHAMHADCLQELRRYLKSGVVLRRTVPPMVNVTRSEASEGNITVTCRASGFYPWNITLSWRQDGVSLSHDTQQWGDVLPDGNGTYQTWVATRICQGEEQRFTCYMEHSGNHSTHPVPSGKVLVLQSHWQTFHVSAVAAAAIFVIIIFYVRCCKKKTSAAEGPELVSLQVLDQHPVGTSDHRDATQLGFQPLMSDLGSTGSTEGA

B1: antibody CLN-619 (Cullinan) (antibody, human IgG1, kappa, V domains shown)
VH: QVQLVESGGGLVKPGGSLRLSCAASGFTFSNYAMSWIRQAPGKGLEWVSYISPGGDYIYYADSVKGRFTISRDNAKNSLYLQMNSLRAEDTAVYYCTTDRRHYGSYAMDYWGQGTLVTVSS
VL: DIVMTQSPLSLPVTPGEPASISCRSSKSLLHSNLNTYLYWFLQKPGQSPQILIYRMSNLASGVPDRFSGSGSGTAFTLKISRVEAEDVGVYYCMQHLEYPFTFGPGTKLEIKR
notes: hIgG1 subtype
B2: antibody 1D5V11 (Genentech) (antibody, human IgG1, kappa, V domains shown)
VH: EIQLVQSGAEVKKPGASVKVSCKASGYAFTSQNIYWVRQAPGQGLEWIGYIEPYNVVPMYNPKFKGRATLTVDKSTSTAYLELSSLRSEDTAVYYCARSGSSNFDYWGQGTLVTVSS
VL: DIQLTQSPSSLSASVGDRVTITCSASSSISSHYLHWYQQKPGKSPKLLIYRTSNLASGVPSRFSGSGSGTDYTLTISSLQPEDFATYYCQQGSSLPLTFGQGTKVEIKR
notes: also called homogeneous antibody 1D5V11

What was measured:
MICA008α3-Fc = biological target: T2, MICA008α3-Fc (human); assay: ELISA on coated MICA*008 α3-Fc (1 µg/ml), HRP anti-human Fab secondary, OD450
T2 construct: also called MICA*008-Fc; domain α3 of MICA-008 Fc fusion protein
T2 sequence (chain, as listed by the source limits assumed): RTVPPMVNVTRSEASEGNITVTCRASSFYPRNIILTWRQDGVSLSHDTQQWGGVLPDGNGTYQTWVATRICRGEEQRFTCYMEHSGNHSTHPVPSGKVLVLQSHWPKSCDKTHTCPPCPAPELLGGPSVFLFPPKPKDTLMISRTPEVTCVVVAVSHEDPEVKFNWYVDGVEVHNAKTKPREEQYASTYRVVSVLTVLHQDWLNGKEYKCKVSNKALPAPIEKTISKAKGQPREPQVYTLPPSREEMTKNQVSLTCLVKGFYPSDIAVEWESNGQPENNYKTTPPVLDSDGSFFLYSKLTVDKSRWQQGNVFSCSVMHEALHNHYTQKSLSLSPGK

[1] = biological target: T1, MICA on human tumor cells (A-375, A549, …); assay: flow cytometry on A-375 cells, Alexa-647 goat anti-human secondary, % binding ratio
Method: (§1) (2) Tumor cells were diluted to a density of 2×10⁶/mL with PBS and added into a 1.5 ml EP tube in a volume of 100 l/tube. 10 l/tube of goat serum was added into the EP tube; and blocking was conducted at 4° C. for 30 min. […] The tube was incubated at 4° C. for 30 min. 1 mL of PBS was added into the EP tube, and centrifugation was conducted 4° C. at a rate of 3,500 rpm for 5 min. The supernatant was removed. Then, the EP tube was washed once with the PBS, and the supernatant was removed after centrifugation. The cells were resuspended with PBS in a volume of 100 l/tube. An Alexa-647 labeled goat anti-human secondary antibody (purchased from Jackson lab) was added into the tube in a volume of 1 l/tube, and the tube was incubated in the dark at 4° C. for 30 min. The tube was washed twice with PBS, and the supernatant was removed after centrifugation. The cells were resuspended with the PBS in a volume of 200 l/tube, and detection was conducted by a flow cytometer. The results are as shown in FIG. 17A and FIG. 17B, FIG. 18A and FIG. 18B, FIG. 19A and FIG. 19B, and FIG. 20A and FIG. 20B.

MICB005α3-Fc = biological target: T3, MICB005α3-Fc; assay: ELISA on coated MICB*005 α3-Fc (1 µg/ml), HRP anti-human Fab secondary, OD450
T3 construct: also called MICB*005-Fc; domain α3 of MICB-005 Fc fusion protein
T3 sequence (chain, as listed by the source limits assumed): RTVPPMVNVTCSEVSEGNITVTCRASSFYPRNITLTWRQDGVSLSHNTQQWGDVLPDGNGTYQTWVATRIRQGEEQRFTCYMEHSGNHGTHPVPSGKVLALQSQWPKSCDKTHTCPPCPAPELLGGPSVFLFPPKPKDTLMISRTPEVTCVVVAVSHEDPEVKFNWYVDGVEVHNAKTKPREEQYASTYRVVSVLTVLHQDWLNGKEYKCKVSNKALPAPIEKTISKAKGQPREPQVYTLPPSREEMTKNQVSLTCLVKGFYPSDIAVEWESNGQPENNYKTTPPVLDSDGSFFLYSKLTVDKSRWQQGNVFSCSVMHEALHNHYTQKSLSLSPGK

MICA005α3-Fc = biological target: T4, MICA005α3-Fc (human); assay: ELISA on coated MICA*005 α3-Fc (1 µg/ml), HRP anti-human Fab secondary, OD450
T4 construct: also called MICA*005-Fc; domain α3 of MICA-005 Fc fusion protein
T4 sequence (chain, as listed by the source limits assumed): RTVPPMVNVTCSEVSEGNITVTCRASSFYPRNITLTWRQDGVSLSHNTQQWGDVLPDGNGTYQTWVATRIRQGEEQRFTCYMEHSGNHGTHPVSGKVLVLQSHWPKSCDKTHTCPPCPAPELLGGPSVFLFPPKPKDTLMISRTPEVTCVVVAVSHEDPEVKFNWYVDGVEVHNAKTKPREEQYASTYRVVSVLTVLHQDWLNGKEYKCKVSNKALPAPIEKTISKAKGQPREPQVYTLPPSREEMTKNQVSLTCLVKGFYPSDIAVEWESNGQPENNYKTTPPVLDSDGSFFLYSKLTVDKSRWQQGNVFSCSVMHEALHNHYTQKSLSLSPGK

[2] = biological target: T1, MICA on human tumor cells (A-375, A549, …); assay: flow cytometry on A-549 cells, Alexa-647 goat anti-human secondary, % binding ratio
Method: as §1

MICB001α3-Fc = biological target: T5, MICB001α3-Fc; assay: ELISA on coated MICB*001 α3-Fc (1 µg/ml), HRP anti-human Fab secondary, OD450
T5 construct: also called MICB*001-Fc; domain α3 of MICB-001 Fc fusion protein
T5 sequence (chain, as listed by the source limits assumed): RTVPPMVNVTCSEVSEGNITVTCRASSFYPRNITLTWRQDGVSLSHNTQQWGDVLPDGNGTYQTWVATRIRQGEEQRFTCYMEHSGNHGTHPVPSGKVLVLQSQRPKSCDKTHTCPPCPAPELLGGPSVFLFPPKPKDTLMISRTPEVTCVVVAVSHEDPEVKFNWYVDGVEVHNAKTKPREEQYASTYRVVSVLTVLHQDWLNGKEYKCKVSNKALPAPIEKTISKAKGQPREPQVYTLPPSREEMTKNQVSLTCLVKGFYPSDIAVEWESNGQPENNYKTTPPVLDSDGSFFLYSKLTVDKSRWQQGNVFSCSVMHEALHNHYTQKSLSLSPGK

[3] = biological target: T1, MICA on human tumor cells (A-375, A549, …); assay: flow cytometry on HCT-15 cells, Alexa-647 goat anti-human secondary, % binding ratio
Method: as §1

[4] = biological target: T1, MICA on human tumor cells (A-375, A549, …); assay: flow cytometry on MDA-MB-231 cells, Alexa-647 goat anti-human secondary, % binding ratio
Method: as §1

[5] = biological target: T1, MICA on human tumor cells (A-375, A549, …); assay: flow cytometry competition on HCT-15 cells; competitor: Biotin-h5A1002, detected with Alexa-647 streptavidin; % binding ratio of Biotin-h5A1002
Method: HCT-15 cells were diluted to a density of 2×10⁶/mL with PBS and added into a 1.5 ml EP tube in a volume of 100 l/tube. 10 l/tube of goat serum was added into the EP tube, and blocking was conducted at 4° C. for 30 min. […] The tube was incubated at 4° C. for 30 min. A biotin-labeled affinity maturation antibody Biotin-h5A1002 (having a heavy chain sequence as set forth in SEQ ID NO: 13 and a light chain sequence as set forth in SEQ ID NO: 14) was added. The tube was incubated at 4° C. for 30 min. 1 mL of PBS was added into the EP tube, and centrifugation was conducted 4° C. at a rate of 3,500 rpm for 5 min. The supernatant was removed. The EP tube was washed once with the PBS, and the supernatant was removed after centrifugation. The cells were resuspended with PBS in a volume of 100 l/tube. An Alexa-647 labeled Streptavidin secondary antibody (purchased from Biolegend) was added into the tube in a volume of 1 l/tube, and the tube was incubated in the dark at 4° C. for 30 min. The tube was washed twice with PBS, and the supernatant was removed after centrifugation. The cells were resuspended with the PBS in a volume of 200 μl/tube, and detection was conducted by a flow cytometer.

MICA004α3-Fc = biological target: T6, MICA004α3-Fc (human); assay: ELISA on coated MICA*004 α3-Fc (1 µg/ml), HRP anti-human Fab secondary, OD450
T6 construct: also called MICA*004-Fc; domain α3 of MICA-004 Fc fusion protein
T6 sequence (chain, as listed by the source limits assumed): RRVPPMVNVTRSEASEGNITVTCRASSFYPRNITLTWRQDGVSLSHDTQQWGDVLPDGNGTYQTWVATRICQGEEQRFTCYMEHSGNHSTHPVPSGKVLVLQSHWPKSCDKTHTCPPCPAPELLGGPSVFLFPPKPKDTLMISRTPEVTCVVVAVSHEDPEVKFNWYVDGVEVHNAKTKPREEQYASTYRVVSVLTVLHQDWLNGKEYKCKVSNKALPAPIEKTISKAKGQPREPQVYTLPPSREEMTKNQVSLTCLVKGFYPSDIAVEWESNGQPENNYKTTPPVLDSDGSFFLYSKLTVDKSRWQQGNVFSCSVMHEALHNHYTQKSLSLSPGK

MICA002α3-Fc = biological target: T7, MICA002α3-Fc (human); assay: ELISA on coated MICA*002 α3-Fc (1 µg/ml), HRP anti-human Fab secondary, OD450
T7 construct: Produced in the Applicant's laboratory; also called MICA*002-Fc; domain α3 of MICA-002 Fc fusion protein
T7 sequence (chain, as listed by the source limits assumed): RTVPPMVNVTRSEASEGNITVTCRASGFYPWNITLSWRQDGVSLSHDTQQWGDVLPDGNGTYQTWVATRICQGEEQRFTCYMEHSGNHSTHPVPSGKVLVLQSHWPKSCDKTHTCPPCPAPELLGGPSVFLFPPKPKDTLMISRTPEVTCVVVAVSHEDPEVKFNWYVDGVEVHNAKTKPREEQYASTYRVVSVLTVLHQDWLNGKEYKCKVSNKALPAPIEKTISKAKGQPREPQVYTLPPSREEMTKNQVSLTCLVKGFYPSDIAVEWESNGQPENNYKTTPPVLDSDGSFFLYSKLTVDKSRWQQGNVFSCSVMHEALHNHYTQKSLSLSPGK

Binder | EC50 (read off the curve) (MICA008α3-Fc) [µg/mL] | EC50 (read off the curve) [1] [µg/mL] | EC50 (read off the curve) (MICB005α3-Fc) [µg/mL] | EC50 (read off the curve) (MICA005α3-Fc) [µg/mL] | EC50 (read off the curve) [2] [µg/mL] | EC50 (read off the curve) (MICB001α3-Fc) [µg/mL] | EC50 (read off the curve) [3] [µg/mL] | EC50 (read off the curve) [4] [µg/mL] | IC50 (read off the curve) [5] [µg/mL] | EC50 (read off the curve) (MICA004α3-Fc) [µg/mL] | EC50 (read off the curve) (MICA002α3-Fc) [µg/mL]
B1 | ~0.1 | ~0.7 | ~0.04 | ~0.2 | ~0.7 | ~0.05 | ~0.3 | ~0.7 | ~4 | ~0.04 | ~0.07
B2 | ~0.07 | ~0.3 | ~0.04 | ~0.09 | ~0.4 | ~0.03 | ~0.1 | ~0.3 | ~5 | ~0.04 | ~0.05
